38 sequences from the supplement of paper PMC7877785 can be followed below.

The nature of the data set: self-splicing fitness, log relative to wild type (ln ratio); higher = more splicing; Tetrahymena group I intron in knt gene, E. coli kanamycin selection, DiMSum; sequences stand for … in CUCUCU…GGAGGGAAAAGUUAUCAGGCAUGCACCUGGUAGCUAGUCUUUAAACCAAUAGAUUGCAUCGGUUUAAAAGGCAAGACCGUCAAAUUGCGGGAAAGGGGUCAACAGCCGUUCAGUACCAAGUCUCAGGGGAAACUUUGAGAUGGCCUUGCAAAGGGUAUGGUAAUAAGCUGACGGACAUGGUCCUAACCACGCAGCCAAGUCCUAAGUCAACAGAUCUUCUGUUGAUAUGGAUGCAGUUCACAGACUAAAUGUCGGUCGGGGAAGAUGUAUUCUUCUCAUAAGAUAUAGUCGGACCUCUCCUUAAUGGGAGCUAGCGGAUGAAGUGAUGCAACACUGGAGCCGCUGGGAACUAAUUUGUAUGCGAAAGUAUAUUGAUUAGUUUUGGAGUACUCGUGGUCG
In outline: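 Six replicate transformations of E. coli BL21(DE3) with a pET-22b(+) library were grown overnight at 37°C or 30°C. The library randomised all eight P1ex-region intron nucleotides, the intron lying in the knt kanamycin-resistance gene, and plates were LB agar with or without 25 μg/mL kanamycin plus 100 μg/mL carbenicillin, 50 μM IPTG and 0.2% rhamnose. Pooled colonies were amplicon-sequenced on an Illumina HiSeq 2500, and fitness is the DiMSum error-weighted combination of wild-type-normalised replicate fold changes, kanamycin versus none.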

± gives the uncertainty stated by the source.

For the sequence GAUAAGCAAUAUUACGCGGC, the “self-splicing fitness (ln)” value was -3.27 ± 0.26 (30 °C) and -1.13 ± 0.2 (37 °C).

For GAUAAGCAAUAUUACGCUUC, the “self-splicing fitness (ln)” value (37 °C) is -3.04 ± 0.29. Turning to GAUAAGCAAUAUUACGGAGC, the “self-splicing fitness (ln)” value is, setting by setting: (30 °C) -3.95 ± 0.29; (37 °C) -1.76 ± 0.19. In the same order, the values of GAUAAGCAAUAUUACGGGGC are -2.96 ± 0.25 and -1.62 ± 0.18. In the same order, the values of GAUAAGCAAUAUUACGGGUG are -1.09 ± 0.081 and -1.02 ± 0.099. Consider GAUAAGCAAUAUUACGGUAU, for which the “self-splicing fitness (ln)” value is -2.17 ± 0.1 (30 °C) and -1.46 ± 0.12 (37 °C). In the same order, the values of GAUAAGCAAUAUUACGUACA are -0.491 ± 0.15 and -0.262 ± 0.16. For the sequence GAUAAGCAAUAUUACGUAUG, the “self-splicing fitness (ln)” value by setting is: (30 °C) -1.53 ± 0.11; (37 °C) -1.37 ± 0.1. In the same order, the values of GAUAAGCAAUAUUACGUGUU are -2.67 ± 0.17 and -2.18 ± 0.14. In the same order, the values of GAUAAGCAAUAUUACGUUGC are -3.38 ± 0.15 and -2.3 ± 0.21. For GAUCAGCAAUAUUACGACGA, the “self-splicing fitness (ln)” value is, setting by setting: (30 °C) -0.224 ± 0.13; (37 °C) 0.262 ± 0.14. In the same order, the values of GAUCAGCAAUAUUACGAUGG are -1.22 ± 0.096 and 0.121 ± 0.14.

GAUCAGCAAUAUUACGCACG: the “self-splicing fitness (ln)” value runs as follows: (30 °C) -0.77 ± 0.076; (37 °C) 0.0829 ± 0.077.

Take GAUCAGCAAUAUUACGCAUU: the “self-splicing fitness (ln)” value was -2.36 ± 0.26 (30 °C) and -1.05 ± 0.32 (37 °C). In the same order, the values of GAUCAGCAAUAUUACGCCAU are -3.36 ± 0.3 and -1.33 ± 0.19.

For GAUCAGCAAUAUUACGCCCG, the “self-splicing fitness (ln)” value was -0.808 ± 0.25 (30 °C) and -0.447 ± 0.21 (37 °C). In the same order, the values of GAUCAGCAAUAUUACGCGCU are -1.86 ± 0.12 and -0.35 ± 0.12.

As for GAUCAGCAAUAUUACGCUUA, the “self-splicing fitness (ln)” value was -0.551 ± 0.12 (30 °C) and 0.0926 ± 0.13 (37 °C). In the same order, the values of GAUCAGCAAUAUUACGGAGG are -3.86 ± 0.24 and -1.82 ± 0.15. In the same order, the values of GAUCAGCAAUAUUACGGCAU are -0.0116 ± 0.068 and 0.0262 ± 0.092. In the same order, the values of GAUCAGCAAUAUUACGGGAC are -1.51 ± 0.085 and -0.976 ± 0.1. On to GAUCAGCAAUAUUACGGGGA, for which the “self-splicing fitness (ln)” value was -1.61 ± 0.12 (30 °C) and -0.776 ± 0.12 (37 °C). In the same order, the values of GAUCAGCAAUAUUACGGGGU are -3.13 ± 0.3 and -2.32 ± 0.26. In the same order, the values of GAUCAGCAAUAUUACGGUGC are -2.03 ± 0.13 and -0.734 ± 0.11. For the sequence GAUCAGCAAUAUUACGUUGU, the “self-splicing fitness (ln)” value is -3.48 ± 0.13 (30 °C) and -2.78 ± 0.16 (37 °C).

In the case of GAUCAGCAAUAUUACGUUUA, the “self-splicing fitness (ln)” value (30 °C) was -0.394 ± 0.084 and the “self-splicing fitness (ln)” value (37 °C) is 0.0451 ± 0.095.

On to GAUCAGCAAUAUUACGUUUU, for which the “self-splicing fitness (ln)” value is, setting by setting: (30 °C) -0.968 ± 0.058; (37 °C) 0.149 ± 0.08. In the same order, the values of GAUGAGCAAUAUUACGAACU are -0.431 ± 0.31 and -0.239 ± 0.31. In the same order, the values of GAUGAGCAAUAUUACGACUC are -1.68 ± 0.14 and -0.273 ± 0.24. In the same order, the values of GAUGAGCAAUAUUACGAGCU are -3.65 ± 0.26 and -2.11 ± 0.24. In the case of GAUGAGCAAUAUUACGAGGU, the “self-splicing fitness (ln)” value reads like this: (30 °C) -2.66 ± 0.32; (37 °C) -1.99 ± 0.33. In the same order, the values of GAUGAGCAAUAUUACGAUGC are -1.35 ± 0.086 and -0.41 ± 0.12. As for GAUGAGCAAUAUUACGCAAC, the “self-splicing fitness (ln)” value by setting is: (30 °C) -2.76 ± 0.21; (37 °C) -1.85 ± 0.21. In the same order, the values of GAUGAGCAAUAUUACGCACC are -1.94 ± 0.44 and -1.13 ± 0.31.

GAUGAGCAAUAUUACGCAGU: the “self-splicing fitness (ln)” value (30 °C) is -3.61 ± 0.3 and the “self-splicing fitness (ln)” value (37 °C) was -2.44 ± 0.33.

On to GAUGAGCAAUAUUACGCCUU, for which, under “30 °C”, the “self-splicing fitness (ln)” value was -1.7 ± 0.24. For the sequence GAUGAGCAAUAUUACGCGCA, the “self-splicing fitness (ln)” value was -1.91 ± 0.21 (30 °C) and -1.58 ± 0.19 (37 °C). Consider GAUGAGCAAUAUUACGGAUU, for which the “self-splicing fitness (ln)” value by setting is: (30 °C) -3.44 ± 0.44; (37 °C) -1.68 ± 0.2.
